Target: ANF-RGC 669WTAPELL675 deletion mutant (UniProt P18910)
Experiment: radioligand binding

UniProt P18910, sequence (P18910 29-1057, stated change not applied): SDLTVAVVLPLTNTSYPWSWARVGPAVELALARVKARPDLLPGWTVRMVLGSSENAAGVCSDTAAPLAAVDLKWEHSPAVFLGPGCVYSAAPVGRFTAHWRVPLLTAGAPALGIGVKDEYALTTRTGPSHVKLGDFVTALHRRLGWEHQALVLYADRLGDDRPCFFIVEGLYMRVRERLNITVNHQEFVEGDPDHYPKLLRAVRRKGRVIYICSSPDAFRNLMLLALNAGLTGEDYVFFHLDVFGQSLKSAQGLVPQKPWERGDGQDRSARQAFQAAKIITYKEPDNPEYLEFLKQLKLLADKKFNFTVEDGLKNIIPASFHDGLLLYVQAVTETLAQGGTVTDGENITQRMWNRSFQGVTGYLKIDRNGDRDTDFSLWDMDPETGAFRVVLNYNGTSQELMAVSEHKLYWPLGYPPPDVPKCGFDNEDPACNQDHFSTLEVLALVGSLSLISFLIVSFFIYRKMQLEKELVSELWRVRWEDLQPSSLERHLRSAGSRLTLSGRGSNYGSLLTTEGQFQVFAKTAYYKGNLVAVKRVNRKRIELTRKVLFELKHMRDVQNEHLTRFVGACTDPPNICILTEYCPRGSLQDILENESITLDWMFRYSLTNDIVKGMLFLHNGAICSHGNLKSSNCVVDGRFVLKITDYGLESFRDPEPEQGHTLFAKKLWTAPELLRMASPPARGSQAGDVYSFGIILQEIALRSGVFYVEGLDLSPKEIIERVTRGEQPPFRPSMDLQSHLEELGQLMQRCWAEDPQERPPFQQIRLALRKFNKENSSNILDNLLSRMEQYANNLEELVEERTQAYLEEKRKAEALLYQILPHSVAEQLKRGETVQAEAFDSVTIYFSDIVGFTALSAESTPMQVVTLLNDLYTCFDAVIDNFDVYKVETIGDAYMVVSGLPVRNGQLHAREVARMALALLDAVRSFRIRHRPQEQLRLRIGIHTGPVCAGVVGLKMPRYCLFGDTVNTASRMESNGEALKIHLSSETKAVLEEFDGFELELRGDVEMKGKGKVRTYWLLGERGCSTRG

atrial natriuretic factor (ANF) (peptide)
specific binding (pmol [125I]ANF/mg protein): 10.1
